Reference: PMC6606567, “Molecular tuning of farnesoid X receptor partial agonism” (Nature Communications, 2019)
Each block holds one molecule with its values, some of them ahead of it.

Assays:
[1] = target: farnesoid X receptor ligand binding domain (FXR-LBD; isoform 4; amino acids 244-472) (human); assay: NMR titration; 1H/13C-HSQC of Leu-labeled NCoR and NCoA peptides (50 µM) with FXR-LBD (50 µM) and CDCA (250 µM); 298 K, 50 mM Tris pH 8.3, 500 mM NaCl, 2 mM TCEP; populations from signal intensities
[2] = target: farnesoid X receptor ligand binding domain (FXR-LBD; isoform 4; amino acids 244-472) (human); assay: NMR titration; 1H/13C-HSQC of Leu-labeled NCoR and NCoA peptides (50 µM) with FXR-LBD (50 µM) and ivermectin (250 µM); 298 K, 50 mM Tris pH 8.3, 500 mM NaCl, 2 mM TCEP; populations from signal intensities
[3] = target: farnesoid X receptor ligand binding domain (FXR-LBD; isoform 4; amino acids 244-472) (human); assay: NMR titration; 1H/13C-HSQC of Leu-labeled NCoR and NCoA peptides (50 µM) with FXR-LBD (50 µM) and fexaramine (250 µM); 298 K, 50 mM Tris pH 8.3, 500 mM NaCl, 2 mM TCEP; populations from signal intensities
[4] = target: farnesoid X receptor ligand binding domain (FXR-LBD; isoform 4; amino acids 244-472) (human); assay: NMR titration; 1H/13C-HSQC of Leu-labeled NCoR and NCoA peptides (50 µM) with FXR-LBD (50 µM) and GW4064 (250 µM); 298 K, 50 mM Tris pH 8.3, 500 mM NaCl, 2 mM TCEP; populations from signal intensities
[5] = target: farnesoid X receptor ligand binding domain (FXR-LBD; isoform 4; amino acids 244-472) (human); assay: NMR titration; 1H/13C-HSQC of Leu-labeled NCoR and NCoA peptides (50 µM) with FXR-LBD (50 µM) and partial agonist 1 (250 µM); 298 K, 50 mM Tris pH 8.3, 500 mM NaCl, 2 mM TCEP; populations from signal intensities
[6] = target: farnesoid X receptor ligand binding domain (FXR-LBD; isoform 4; amino acids 244-472) (human); assay: NMR titration; HSQC of the quaternary mixture of FXR-LBD, antagonist guggulsterone, labeled co-activator (NCoA) and co-repressor (NCoR) peptides; protein:peptide:ligand 50:50:250 µM, 298 K
[7] = target: the molecule itself; assay: crystal structure; FXR244-472 (75 µM) incubated with 150 µM partial agonist 1 (DM175), concentrated to 375 µM, then 750 µM NCoA-2 740-752 peptide; hanging drop, 4 °C, 300 mM MgCl2, 100 mM Bis-Tris pH 7, 15-20% PEG 3350, micro seeding

free co-repressor/free co-activator ratio (part of free co-activator) [1]: 13
free co-repressor/free co-activator ratio (part of free co-activator) [2]: 75
free co-repressor/free co-activator ratio (part of free co-activator) [3]: 23
free co-repressor/free co-activator ratio (part of free co-activator) [4]: 14
free co-repressor/free co-activator ratio (part of free co-activator) [5]: 70
free co-repressor/free co-activator ratio (part of free co-activator) [6]: 85
Molecule: Nuclear receptor co-activator 2 peptide (NCoA-2 740-752)

free co-repressor/free co-activator ratio (part of free co-repressor) [1]: 87
free co-repressor/free co-activator ratio (part of free co-repressor) [2]: 25
free co-repressor/free co-activator ratio (part of free co-repressor) [3]: 77
free co-repressor/free co-activator ratio (part of free co-repressor) [4]: 86
free co-repressor/free co-activator ratio (part of free co-repressor) [5]: 30
free co-repressor/free co-activator ratio (part of free co-repressor) [6]: 15
Molecule: nuclear receptor co-repressor 1 peptide (NCoR-1, residues 2256-2278)

B1: farnesoid X receptor ligand binding domain (FXR-LBD; isoform 4; amino acids 244-472) (domain or fragment, human)
chain: ELTPDQQTLLHFIMDSYNKQRMPQEITNKILKEEFSAEENFLILTEMATNHVQVLVEFTKKLPGFQTLDHEDQIALLKGSAVEAMFLRSAEIFNKKLPSGHSDLLEERIRNSGISDEYITPMFSFYKSIGELKMTQEEYALLTAIVILSPDRQYIKDREAVEKLQEPLLDVLQKLCKIHQPENPQHFACLLGRLTELRTFNHHHAEMLMSWRVNDHKFTPLLCEIWDVQ
notes: numbers count on: isoform 4; also called FXR244-472; NR1H4; source: E. coli BL21(DE3) gold, purified (NiNTA, Tev cleavage, Superdex 200); not shown: His6, N-terminal, cleaved
binding result [7]: binds
